In paper PMC7490560 (2020):

Columns and labels:
[1] = molecular target: T1, FOSB (Homo sapiens, UniProt P53539); test: DULIP (scaled)
T1 chain: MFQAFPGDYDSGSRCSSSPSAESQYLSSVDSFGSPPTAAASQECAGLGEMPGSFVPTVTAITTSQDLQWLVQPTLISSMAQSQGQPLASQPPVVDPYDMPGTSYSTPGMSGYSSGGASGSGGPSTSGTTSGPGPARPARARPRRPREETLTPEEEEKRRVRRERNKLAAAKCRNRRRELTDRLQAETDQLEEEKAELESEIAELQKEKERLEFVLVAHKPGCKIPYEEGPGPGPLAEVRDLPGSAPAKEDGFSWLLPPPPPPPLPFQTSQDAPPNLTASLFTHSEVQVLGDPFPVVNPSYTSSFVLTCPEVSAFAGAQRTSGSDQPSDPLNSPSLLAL

[2] = molecular target: T2, MAP2K6 (Homo sapiens, UniProt P52564); test: DULIP (scaled)
T2 chain: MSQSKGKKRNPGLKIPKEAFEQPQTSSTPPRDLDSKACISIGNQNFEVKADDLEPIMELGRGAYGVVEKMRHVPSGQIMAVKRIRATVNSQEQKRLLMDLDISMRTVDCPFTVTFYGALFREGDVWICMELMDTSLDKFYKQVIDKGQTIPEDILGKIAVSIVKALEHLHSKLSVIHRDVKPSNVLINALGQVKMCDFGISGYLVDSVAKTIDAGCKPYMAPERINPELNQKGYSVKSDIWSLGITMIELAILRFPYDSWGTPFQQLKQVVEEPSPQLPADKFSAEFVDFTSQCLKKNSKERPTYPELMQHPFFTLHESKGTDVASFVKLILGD

[3] = molecular target: T3, ELF3 (Homo sapiens, UniProt P78545); test: DULIP (scaled)
T3 chain: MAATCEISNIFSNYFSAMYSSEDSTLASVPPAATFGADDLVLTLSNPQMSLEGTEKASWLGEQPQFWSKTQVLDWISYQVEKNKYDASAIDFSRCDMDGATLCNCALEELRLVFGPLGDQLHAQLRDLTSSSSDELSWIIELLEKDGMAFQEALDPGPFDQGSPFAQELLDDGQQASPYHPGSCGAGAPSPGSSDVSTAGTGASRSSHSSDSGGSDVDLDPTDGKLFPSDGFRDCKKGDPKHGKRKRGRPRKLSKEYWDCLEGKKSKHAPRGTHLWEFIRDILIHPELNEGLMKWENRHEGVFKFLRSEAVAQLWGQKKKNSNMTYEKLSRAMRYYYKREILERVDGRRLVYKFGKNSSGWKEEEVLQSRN

[4] = molecular target: T4, CEBPG (Homo sapiens, UniProt P53567); test: DULIP (scaled)
T4 chain: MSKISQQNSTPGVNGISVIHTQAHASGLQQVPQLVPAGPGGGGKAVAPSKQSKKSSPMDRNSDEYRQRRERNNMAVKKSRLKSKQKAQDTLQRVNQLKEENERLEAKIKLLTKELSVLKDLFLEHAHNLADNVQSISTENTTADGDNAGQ

[5] = molecular target: T5, FOSL2 (Homo sapiens, UniProt P15408); test: DULIP (scaled)
T5 chain: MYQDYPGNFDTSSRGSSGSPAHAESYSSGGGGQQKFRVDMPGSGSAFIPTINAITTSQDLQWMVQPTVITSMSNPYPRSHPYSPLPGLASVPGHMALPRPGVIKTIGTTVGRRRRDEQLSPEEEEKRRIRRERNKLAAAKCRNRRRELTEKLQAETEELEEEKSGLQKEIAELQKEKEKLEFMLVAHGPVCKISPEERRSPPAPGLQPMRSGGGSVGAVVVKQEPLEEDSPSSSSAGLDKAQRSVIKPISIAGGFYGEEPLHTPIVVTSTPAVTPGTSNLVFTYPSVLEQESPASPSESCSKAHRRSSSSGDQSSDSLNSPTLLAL

[6] = molecular target: T6, DDIT3 (Homo sapiens, UniProt P35638); test: DULIP (scaled)
T6 chain: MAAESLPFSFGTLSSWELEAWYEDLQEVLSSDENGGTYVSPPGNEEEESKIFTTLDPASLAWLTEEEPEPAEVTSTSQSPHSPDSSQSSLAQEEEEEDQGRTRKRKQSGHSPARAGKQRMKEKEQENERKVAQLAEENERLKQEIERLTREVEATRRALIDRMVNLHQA

[7] = molecular target: T3, ELF3; test: FCCS (live HEK293T cells)
[8] = molecular target: T7, CREBL2 (Homo sapiens, UniProt O60519); test: FCCS (live HEK293T cells)
T7 chain: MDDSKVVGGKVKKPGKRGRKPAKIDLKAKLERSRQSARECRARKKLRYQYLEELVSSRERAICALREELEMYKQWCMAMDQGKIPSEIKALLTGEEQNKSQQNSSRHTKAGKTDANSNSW

[9] = molecular target: T4, CEBPG; test: FCCS (live HEK293T cells)
[10] = molecular target: T5, FOSL2; test: FCCS (live HEK293T cells)
[11] = molecular target: EIF3J (Homo sapiens, UniProt O75822); test: FCCS (live HEK293T cells)
Sequence of EIF3J (O75822 2-258): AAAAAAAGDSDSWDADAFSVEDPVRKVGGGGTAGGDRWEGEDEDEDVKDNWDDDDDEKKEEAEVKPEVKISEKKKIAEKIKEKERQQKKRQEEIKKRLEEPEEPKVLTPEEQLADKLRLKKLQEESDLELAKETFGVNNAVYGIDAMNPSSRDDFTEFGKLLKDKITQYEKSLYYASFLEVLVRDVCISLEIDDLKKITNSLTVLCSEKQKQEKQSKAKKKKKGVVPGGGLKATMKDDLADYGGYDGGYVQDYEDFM

Kd [1]: > 9 µM
Kd [2]: > 9 µM
Kd [3]: > 9 µM
Kd [4]: > 9 µM
Kd [5]: > 9 µM
Kd [6]: > 9 µM
Kd [7]: > 10 µM
Kd [8]: > 10 µM
Kd [9]: > 10 µM
Kd [10]: > 10 µM
Kd [11]: > 10 µM
B1: NRF2 (protein)
chain: MMDLELPPPGLPSQQDMDLIDILWRQDIDLGVSREVFDFSQRRKEYELEKQKKLEKERQEQLQKEQEKAFFAQLQLDEETGEFLPIQPAQHIQSETSGSANYSQVAHIPKSDALYFDDCMQLLAQTFPFVDDNEVSSATFQSLVPDIPGHIESPVFIATNQAQSPETSVAQVAPVDLDGMQQDIEQVWEELLSIPELQCLNIENDKLVETTMVPSPEAKLTEVDNYHFYSSIPSMEKEVGNCSPHFLNAFEDSFSSILSTEDPNQLTVNSLNSDATVNTDFGDEFYSAFIAEPSISNSMPSPATLSHSLSELLNGPIDVSDLSLCKAFNQNHPESTAEFNDSDSGISLNTSPSVASPEHSVESSSYGDTLLGLSDSEVEELDSAPGSVKQNGPKTPVHSSGDMVQPLSPSQGQSTHVHDAQCENTPEKELPVSPGHRKTPFTKDKHSSRLEAHLTRDELRAKALHIPFPVEKIINLPVVDFNEMMSKEQFNEAQLALIRDIRRRGKNKVAAQNCRKRKLENIVELEQDLDHLKDEKEKLLKEKGENDKSLHLLKKQLSTLYLEVFSMLRDEDGKPYSPSEYSLQQTRDGNVFLVPKSKKPDVKKN
